These results are taken from article PMC11865472.

Assay [1] has as its target biotinylated TGF-β2 homodimer. As to the kind of experiment: SPR. The following applies: surface: TGF-β2, read off a plot.
Assay [2] concerns the target inhibin A (InhA), mature heterodimer (UniProt P05111). As to the kind of experiment: SPR; TGF-β2 (b) or InhA (c) immobilised; BGZP-C mutants injected, 2-fold serial dilutions 500 - 15.6 nM; three consecutive repeats.
The target in assay [3] is TGF-β2 (growth factor domain, wild type) (human). As to the kind of experiment: SPR; TGF-β2 immobilised on the chip surface; ratBGO, zfBGO, ratBGO-zfBL or ratBGO-Y248A injected, 2-fold dilution series 500 - 31.3 nM; three consecutive repeats.
Assay [4] concerns the target biotin-TGF-β2 (minimally biotinylated TGF-β2) (human). In words: SPR; BIAcore X100; minimally biotinylated TGF-β2 captured on a neutravidin CM5 chip, max 50 RU; zfBGO variants injected, 2-fold dilution series (500 or 1000 - 31.3 nM); 10 mM CHES, 150 mM NaCl, 3 mM EDTA, 0.01% P20, pH 8.6; 100 µl/min; 1:1 kinetic model; two consecutive repeats. A general note: SPR reads the build-up and loss of mass on a sensor chip optically.

Assay [5] has as its target TGF-β2 (Y50A, L51A) (human). As to the kind of experiment: SPR; BIAcore T200; TGF-β2 WT or TGF-β2 mutants amine-coupled (EDC-NHS) to a CM4 chip, max 400 RU; zfBGO WT or BGZP-C WT injected, 2-fold dilution series 250 - 15.6 nM; 10 mM CHES, 150 mM NaCl, 3 mM EDTA, 0.01% P20, pH 8.0; 100 µl/min; 1:1 kinetic model with drift; three consecutive repeats.
The target in assay [6] is TGF-β2 (growth factor domain, wild type) (human). The description is as above.

Chain of inhibin A (InhA), mature heterodimer (P05111 233-366, chain 1 of 2): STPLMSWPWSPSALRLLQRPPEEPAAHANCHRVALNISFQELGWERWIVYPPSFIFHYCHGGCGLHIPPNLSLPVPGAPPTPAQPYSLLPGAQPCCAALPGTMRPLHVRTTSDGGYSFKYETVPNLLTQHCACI
Chain of inhibin A (InhA), mature heterodimer (P08476 311-426, chain 2 of 2, further chain): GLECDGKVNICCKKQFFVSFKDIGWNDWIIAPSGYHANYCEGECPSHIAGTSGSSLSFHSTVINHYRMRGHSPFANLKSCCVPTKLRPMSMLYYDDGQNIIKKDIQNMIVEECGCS

Consider “rat betaglycan ZP-C domain (BG_(ZP-C)), mammalian-expressed Q166A”, for which, in assay [1] (parent: est. 160), the dissociation constant (Kd) was 200 nM.

In turn, BGZP-C I161Y (domain or fragment) displayed a Kd in assay [2] of 815 nM.

In the case of BGZP-C N82Y (domain or fragment), the Kd in assay [2] stood at 883 nM.

In the case of “rat betaglycan ZP-C domain (BG_(ZP-C)), mammalian-expressed L143A”, the Kd in assay [1] (parent: est. 160) was found to be 130 nM.

“zebrafish betaglycan orphan domain (zfBGO), wild type (domain or fragment)”: the Kd in assay [3] is 86 nM; in assay [4], 38 nM; in assay [5], 205 nM; in assay [6] it was 148 nM.

Take “zebrafish betaglycan orphan domain (zfBGO) K319A”: the dissociation constant (Kd) in assay [1] (parent: est. 33) was 180 nM.

Consider “rat betaglycan ZP-C domain (BG_(ZP-C)), mammalian-expressed W162A; M165A”, for which the Kd in assay [1] (parent: est. 160) worked out at 1300 nM.

Take “rat betaglycan ZP-C domain (BG_(ZP-C)), mammalian-expressed K86A”: in assay [1] (parent: est. 160), the Kd is 70 nM.

With “rat betaglycan ZP-C domain (BG_(ZP-C)), mammalian-expressed M164A”, the Kd in assay [1] (parent: est. 160) came to 320 nM.

Substance zfBGO K319A (domain or fragment) gave a Kd in assay [4] of 175 nM.

In turn, BGZP-C I161A (domain or fragment) yielded a dissociation constant (Kd) in assay [2] of 1080 nM.

For the substance “rat betaglycan ZP-C domain (BG_(ZP-C)), mammalian-expressed D88A”, the equilibrium dissociation constant (Kd) in assay [1] (parent: est. 160) stood at 230 nM.

BGZP-C N82A (domain or fragment) displayed a Kd in assay [2] of 968 nM.

“rat betaglycan ZP-C domain (BG_(ZP-C)), mammalian-expressed M165A”: the Kd in assay [1] (parent: est. 160) was found to be 330 nM.

As for “zebrafish betaglycan orphan domain (zfBGO) K316A”, the Kd in assay [1] (parent: est. 33) was found to be 130 nM.

zfBGO K316A (domain or fragment): in assay [4], the Kd was 135 nM.

For “rat betaglycan ZP-C domain (BG_(ZP-C)), mammalian-expressed S155A”, the Kd in assay [1] (parent: est. 160) was found to be 290 nM.

Take “rat betaglycan ZP-C domain (BG_(ZP-C)), mammalian-expressed E130A”: the Kd in assay [1] (parent: est. 160) amounted to 1400 nM.

Take zfBGO L208A (domain or fragment): the Kd in assay [4] is 88 nM.

Turning to “rat betaglycan ZP-C domain (BG_(ZP-C)), mammalian-expressed W162A”, the Kd in assay [1] (parent: est. 160) was 730 nM.

On to “ratBGO-zfBL (ratBGO with the shortened binding loop of zfBGO) (from UniProt P26342 31-360) (domain or fragment)”, for which the Kd in assay [3] was 88 nM.

Usually Kd stands for a measure of binding affinity in units of concentration.
